In paper PMC9352680, “A comprehensive thermodynamic model for RNA binding by the Saccharomyces cerevisiae Pumilio protein PUF4”:

T1: PUF4 RNA-binding domain (Saccharomyces cerevisiae, UniProt P25339 537-888)
T1 sequence: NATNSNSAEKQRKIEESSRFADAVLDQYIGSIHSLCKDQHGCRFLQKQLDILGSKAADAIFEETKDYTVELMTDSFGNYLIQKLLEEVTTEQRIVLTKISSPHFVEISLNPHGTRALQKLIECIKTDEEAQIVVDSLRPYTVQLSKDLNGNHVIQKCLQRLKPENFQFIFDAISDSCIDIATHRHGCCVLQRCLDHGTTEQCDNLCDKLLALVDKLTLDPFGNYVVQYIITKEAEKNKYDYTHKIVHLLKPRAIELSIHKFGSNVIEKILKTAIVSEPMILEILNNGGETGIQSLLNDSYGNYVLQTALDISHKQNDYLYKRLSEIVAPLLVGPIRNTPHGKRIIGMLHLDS


Target: T1, PUF4 RNA-binding domain
Assay: Mg; RNA-MaP; 20 mM Na-HEPES pH 7.4, 30 mM KOAc, 0.75 mM MgCl2, 0.1% Tween-20, 5% glycerol, 0.1 mg/mL BSA, 2 mM DTT; 25 C; 0.0125-409.6 nM protein
Conditions: tags: N-His6-TEV cleaved; C-SNAP kept, Cy3B-labelled; label: tethered on chip by stalled RNA polymerase

Binder | Kd
Id_iii_S2_P4E.6_K4.2_C4.3_[C-2T]_H4.2_A4.1_F4.1_T4.2 (ssRNA) RNA: UUUGAUUAAUAUGAUAUCGUUCUUUCUUUUUAUAUAUUAGUUUCUUUCUCGAUAUCAUAUUAAUCUUU | 20.2 nM
Id_iii_S2_P4E.6_K4.2_C4.3_H4.2_A4.1_F4.1_T4.2_[G10A] (ssRNA) RNA: UUUGAUUAAUAUGAUAUCGUUCUUUCUUCUUAUAUAUUAAUUUCUUUCUCGAUAUCAUAUUAAUCUUU | 10.7 nM
Id_iii_S2_P4E.7_K4.3_C4.3_[T-1A]_H4.3_A4.1_F4.1_T4.2 (ssRNA) RNA: UUUGAUUAAUAUGAUAUCGUUCUUUCUUCAACACUAUUAGUUUCUUUCUCGAUAUCAUAUUAAUCUUU | > 2300 nM
Id_iii_S2_P4E.6_K4.2_C4.3_[T-1G]_H4.2_A4.1_F4.1_T4.2 (ssRNA) RNA: UUUGAUUAAUAUGAUAUCGUUCUUUCUUCGUAUAUAUUAGUUUCUUUCUCGAUAUCAUAUUAAUCUUU | 10.9 nM
Id_iii_S2_P4E.8_K4.4_C4.3_[T-1A]_H4.1_A4.2_F4.1_T4.2 (ssRNA) RNA: UUUGAUUAAUAUGAUAUCGUUCUUUCUUCAUGUAUUUUAGUUUCUUUCUCGAUAUCAUAUUAAUCUUU | 1.28 nM
Id_iii_S2_P4E.8_K4.4_C4.3_[C-2T]_H4.1_A4.2_F4.1_T4.2 (ssRNA) RNA: UUUGAUUAAUAUGAUAUCGUUCUUUCUUUUUGUAUUUUAGUUUCUUUCUCGAUAUCAUAUUAAUCUUU | 0.936 nM
Id_iii_S2_P4E.8_K4.4_C4.3_H4.1_A4.2_F4.1_T4.2_[T11C] (ssRNA) RNA: UUUGAUUAAUAUGAUAUCGUUCUUUCUUCUUGUAUUUUAGCUUCUUUCUCGAUAUCAUAUUAAUCUUU | 1.42 nM
Id_iii_S2_P4E.7_K4.3_C4.3_[T-1C]_H4.3_A4.1_F4.1_T4.2 (ssRNA) RNA: UUUGAUUAAUAUGAUAUCGUUCUUUCUUCCACACUAUUAGUUUCUUUCUCGAUAUCAUAUUAAUCUUU | > 2300 nM
Id_iii_S2_P4E.6_K4.2_C4.3_[T-1A]_H4.2_A4.1_F4.1_T4.2 (ssRNA) RNA: UUUGAUUAAUAUGAUAUCGUUCUUUCUUCAUAUAUAUUAGUUUCUUUCUCGAUAUCAUAUUAAUCUUU | 6.83 nM
Id_iii_S2_P4E.6_K4.2_C4.3_H4.2_A4.1_F4.1_T4.2_[G10T] (ssRNA) RNA: UUUGAUUAAUAUGAUAUCGUUCUUUCUUCUUAUAUAUUAUUUUCUUUCUCGAUAUCAUAUUAAUCUUU | 3.84 nM
Id_iii_S2_P4E.9_K4.5_C4.3_[T-1A]_H4.1_A4.2_F4.2_T4.2 (ssRNA) RNA: UUUGAUUAAUAUGAUAUCGUUCUUUCUUCAUGUAUUUAAGUUUCUUUCUCGAUAUCAUAUUAAUCUUU | 554 nM
Id_iii_S2_P4E.9_K4.5_C4.3_H4.1_A4.2_F4.2_T4.2_[G10C] (ssRNA) RNA: UUUGAUUAAUAUGAUAUCGUUCUUUCUUCUUGUAUUUAACUUUCUUUCUCGAUAUCAUAUUAAUCUUU | 77.5 nM
Id_iii_S2_P4E.9_K4.5_C4.3_[T-1G]_H4.1_A4.2_F4.2_T4.2 (ssRNA) RNA: UUUGAUUAAUAUGAUAUCGUUCUUUCUUCGUGUAUUUAAGUUUCUUUCUCGAUAUCAUAUUAAUCUUU | 502 nM
Id_iii_S2_P4E.7_K4.3_C4.3_H4.3_A4.1_F4.1_T4.2_[G10C] (ssRNA) RNA: UUUGAUUAAUAUGAUAUCGUUCUUUCUUCUACACUAUUACUUUCUUUCUCGAUAUCAUAUUAAUCUUU | 494 nM
Id_iii_S2_P4E.8_K4.4_C4.3_[T-3C]_H4.1_A4.2_F4.1_T4.2 (ssRNA) RNA: UUUGAUUAAUAUGAUAUCGUUCUUUCUCCUUGUAUUUUAGUUUCUUUCUCGAUAUCAUAUUAAUCUUU | 0.923 nM
Id_iii_S2_P4E.8_K4.4_C4.3_[C-2G]_H4.1_A4.2_F4.1_T4.2 (ssRNA) RNA: UUUGAUUAAUAUGAUAUCGUUCUUUCUUGUUGUAUUUUAGUUUCUUUCUCGAUAUCAUAUUAAUCUUU | 1.45 nM
Id_iii_S2_P4E.7_K4.3_C4.3_H4.3_A4.1_F4.1_T4.2_[G10T] (ssRNA) RNA: UUUGAUUAAUAUGAUAUCGUUCUUUCUUCUACACUAUUAUUUUCUUUCUCGAUAUCAUAUUAAUCUUU | 486 nM
Id_iii_S2_P4E.8_K4.4_C4.3_H4.1_A4.2_F4.1_T4.2_[G10T] (ssRNA) RNA: UUUGAUUAAUAUGAUAUCGUUCUUUCUUCUUGUAUUUUAUUUUCUUUCUCGAUAUCAUAUUAAUCUUU | 0.967 nM

Binder | Kd
Id_iii_S2_P4E.8_K4.4_C4.3_[C-2A]_H4.1_A4.2_F4.1_T4.2 (ssRNA) RNA: UUUGAUUAAUAUGAUAUCGUUCUUUCUUAUUGUAUUUUAGUUUCUUUCUCGAUAUCAUAUUAAUCUUU | 1.76 nM
Id_iii_S2_P4E.6_K4.2_C4.3_H4.2_A4.1_F4.1_T4.2_[G10C] (ssRNA) RNA: UUUGAUUAAUAUGAUAUCGUUCUUUCUUCUUAUAUAUUACUUUCUUUCUCGAUAUCAUAUUAAUCUUU | 5.27 nM
Id_iii_S2_P4E.8_K4.4_C4.3_H4.1_A4.2_F4.1_T4.2_[G10C] (ssRNA) RNA: UUUGAUUAAUAUGAUAUCGUUCUUUCUUCUUGUAUUUUACUUUCUUUCUCGAUAUCAUAUUAAUCUUU | 2.77 nM
Id_iii_S2_P4E.7_K4.3_C4.3_H4.3_A4.1_F4.1_T4.2_[T11C] (ssRNA) RNA: UUUGAUUAAUAUGAUAUCGUUCUUUCUUCUACACUAUUAGCUUCUUUCUCGAUAUCAUAUUAAUCUUU | > 2300 nM
UCUCUUUGUAGCAUUAUCUCUU (ssRNA) [Ib_S1_P5E.1_K5.1_C5.1_H5.1_A5.1_[T5G]_[T6C]_F5.1_T5.1] | 15.3 nM
UCUCUUUGUACAAUUAUCUCUU (ssRNA) [Ic_S1_P5E.1_K5.1_C5.1_H5.1_A5.1_[T5C]_[T6A]_F5.1_T5.1] | 5.07 nM
UCUCUUUGUACGAUUAUCUCUU (ssRNA) [Ib_S1_P5E.1_K5.1_C5.1_H5.1_A5.1_[T5C]_[T6G]_F5.1_T5.1] | 9.71 nM
Id_iii_S2_P5E.5_K5.1_C5.3_H5.1_A5.1_F5.1_T5.2_[T11A] (ssRNA) RNA: UUUGAUUAAUAUGAUAUCGUUCUUUCUUCUUGUAUUAUUAAAUUCUUUCUCGAUAUCAUAUUAAUCUUU | 3.88 nM
Id_iii_S2_P5E.5_K5.1_C5.3_H5.1_A5.1_F5.1_T5.2_[A12C] (ssRNA) RNA: UUUGAUUAAUAUGAUAUCGUUCUUUCUUCUUGUAUUAUUAUCUUCUUUCUCGAUAUCAUAUUAAUCUUU | 1.64 nM
Id_iii_S2_P5E.7_K5.3_C5.3_[T-1G]_H5.3_A5.1_F5.1_T5.2 (ssRNA) RNA: UUUGAUUAAUAUGAUAUCGUUCUUUCUUCGACACUUAUUAUAUUCUUUCUCGAUAUCAUAUUAAUCUUU | 963 nM
Id_iii_S2_P5E.7_K5.3_C5.3_[T-1C]_H5.3_A5.1_F5.1_T5.2 (ssRNA) RNA: UUUGAUUAAUAUGAUAUCGUUCUUUCUUCCACACUUAUUAUAUUCUUUCUCGAUAUCAUAUUAAUCUUU | 838 nM
Id_iii_S2_P5E.7_K5.3_C5.3_[C-2A]_H5.3_A5.1_F5.1_T5.2 (ssRNA) RNA: UUUGAUUAAUAUGAUAUCGUUCUUUCUUAUACACUUAUUAUAUUCUUUCUCGAUAUCAUAUUAAUCUUU | 579 nM
Id_iii_S2_P5E.7_K5.3_C5.3_[C-2G]_H5.3_A5.1_F5.1_T5.2 (ssRNA) RNA: UUUGAUUAAUAUGAUAUCGUUCUUUCUUGUACACUUAUUAUAUUCUUUCUCGAUAUCAUAUUAAUCUUU | 2.01 nM
Id_iii_S2_P5E.6_K5.2_C5.3_H5.2_A5.1_F5.1_T5.2_[A12T] (ssRNA) RNA: UUUGAUUAAUAUGAUAUCGUUCUUUCUUCUUAUAUUAUUAUUUUCUUUCUCGAUAUCAUAUUAAUCUUU | 42.1 nM
Id_iii_S2_P5E.7_K5.3_C5.3_[T-3A]_H5.3_A5.1_F5.1_T5.2 (ssRNA) RNA: UUUGAUUAAUAUGAUAUCGUUCUUUCUACUACACUUAUUAUAUUCUUUCUCGAUAUCAUAUUAAUCUUU | 709 nM
Id_iii_S2_P5E.5_K5.1_C5.3_H5.1_A5.1_F5.1_T5.2_[A12T] (ssRNA) RNA: UUUGAUUAAUAUGAUAUCGUUCUUUCUUCUUGUAUUAUUAUUUUCUUUCUCGAUAUCAUAUUAAUCUUU | 1.59 nM
Id_iii_S2_P5E.5_K5.1_C5.3_H5.1_A5.1_F5.1_T5.2_[A12G] (ssRNA) RNA: UUUGAUUAAUAUGAUAUCGUUCUUUCUUCUUGUAUUAUUAUGUUCUUUCUCGAUAUCAUAUUAAUCUUU | 2.58 nM
